Experimental findings from patent US11814447B2, “Peptide ligands for binding to EphA2” (BICYCLERD LIMITED, priority 2018, dated 2023) are described below.

The target in assay [1] is T1, Human EphA2 (Ecto), C-terminal polyHis (Human, UniProt P29317 24-537).
T1 construct: extracellular domain; also called EPH receptor A2; ephrin type-A receptor 2
In words: fluorescence polarisation competition; competitor fluorescent Compound 18. The method, then: (§1) Peptides without a fluorescent tag were tested in competition with a peptide with a fluorescent tag and a known Kd (Table 2). Peptides were diluted to an appropriate concentration in assay buffer as described in the direct binding assay with a maximum of 5% DMSO, then serially diluted 1 in 2. […] Measurements were conducted as for the direct binding assay, however the gain was determined prior to the first measurement. Data analysis was in Systat Sigmaplot version 12.0 where the mP values were fit to a user defined cubic equation to generate a Ki value: […]
In general terms: In fluorescence polarisation assays a small probe gives low polarisation when free and higher when bound to something large.

Assay [2] concerns the target T1, Human EphA2 (Ecto), C-terminal polyHis. In words: fluorescence polarisation competition; competitor fluorescent Compound 66. The procedure:
as §1

In assay [3] the target is Human EphA2 (Ecto) (Human) (UniProt P29317). In words: FP competition, tracer Compound 18.
Chain of Human EphA2 (Ecto) (Human) (P29317 24-537): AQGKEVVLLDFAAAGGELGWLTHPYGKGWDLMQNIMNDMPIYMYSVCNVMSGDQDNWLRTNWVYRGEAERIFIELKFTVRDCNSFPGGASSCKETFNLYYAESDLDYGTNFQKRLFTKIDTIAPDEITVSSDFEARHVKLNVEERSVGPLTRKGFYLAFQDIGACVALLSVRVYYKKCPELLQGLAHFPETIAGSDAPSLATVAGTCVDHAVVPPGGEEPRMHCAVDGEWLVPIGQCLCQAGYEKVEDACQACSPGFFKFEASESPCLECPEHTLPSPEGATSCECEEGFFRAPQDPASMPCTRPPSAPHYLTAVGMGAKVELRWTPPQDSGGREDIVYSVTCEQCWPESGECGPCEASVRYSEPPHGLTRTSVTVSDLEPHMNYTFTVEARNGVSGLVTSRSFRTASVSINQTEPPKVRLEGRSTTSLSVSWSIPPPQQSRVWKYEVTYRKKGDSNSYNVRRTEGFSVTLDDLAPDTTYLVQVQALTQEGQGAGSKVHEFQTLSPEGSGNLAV

Starred links: 1 amine or outer side, 2 acyl side, 3 side chain; linkers in the order of their positions; H or OH if unused. Positions of bridges follow the written chain, without caps; N, C: chain ends. Non-standard residues stand in square brackets, D forms with d. Primed or numbered codes have the meaning given here. No end group written: not given here. TBMB′ = 1,3,5-tris(bromomethyl)benzene, 1,3,5-tris(methylene)benzene core, three thioethers to Cys; 1Nal = N[C@@H](Cc1cccc2ccccc12)C(=O)O; TBMB = c1c(C[*:1])cc(C[*:3])cc1C[*:2]; Hyp = O=C(O)[C@@H]1C[C@@H](O)CN1; hArg = N=C(N)NCCCC[C@H](N)C(=O)O; 4Pal = N[C@@H](Cc1ccncc1)C(=O)O; Tle = CC(C)(C)[C@H](N)C(=O)O; Aib = CC(C)(N)C(=O)O; βAla = NCCC(=O)O; Sar = CNCC(=O)O

T1 sequence (P29317 24-537): as above

B1: Bicycle Compound Number 131 (TBMB scaffold) (peptide)
peptide: [Sar][Sar]ACP[1Nal]GPFWCP[Tle]NR[Aib]GC
modifications: linker 4-11-18 via TBMB
notes: also called Sar2-ACP(1Nal)GPFWCP(tBuGly)NR(Aib)GC
As to B1, the Ki (usually a dissociation constant, usually derived from enzyme kinetics or from competition with a known ligand) is 11 nM in assay [1] and 6.8 nM in assay [2].

B2: Bicycle Compound 184 (peptide)
peptide: Ac-[Sar][Sar]A[dD]VTCP[1Nal]G[Aib]F[1Nal]CP[Tle]N[hArg]P[dD]C
modifications: linker 7-14-21 via TBMB
Consider B2, for which, in assay [3], the Ki was 1.19 nM.

B3: Bicycle Compound 234 (peptide)
peptide: [βAla][Sar][Sar][Sar][Sar][Sar][Sar][Sar][Sar][Sar][Sar]H[dD]VPC[Aib][1Nal]G[Aib]F[1Nal]CP[Tle]NRPGC
modifications: linker 16-23-30 via TBMB
Turning to B3, the Ki in assay [3] was 3.94 nM.

B4: Bicycle Compound Number 127 (TBMB scaffold) (peptide)
peptide: [Sar][Sar]ACP[1Nal]G[Aib]FWCPV[dA]RPGC
modifications: linker 4-11-18 via TBMB
notes: also called Sar2-ACP(1Nal)G(Aib)FWCPV(D-Ala)RPGC
For the molecule B4, the Ki in assay [1] turned out to be 40 nM; in assay [2], 33 nM.

B5: Bicycle Compound Number 128 (TBMB scaffold) (peptide)
peptide: [Sar][Sar]ACP[1Nal]G[Aib]FWCPVNRP[dA]C
modifications: linker 4-11-18 via TBMB
As to B5, the Ki in assay [1] was 15 nM; in assay [2], 16 nM.

B6: Bicycle Compound 231 (peptide)
peptide: Ac-[Sar][Sar]A[dH]DVPCP[1Nal]G[Aib]F[1Nal]CP[Tle]N[hArg]PGC
modifications: linker 8-15-22 via TBMB
In assay [3], B6 came in with a Ki of 1.93 nM.

B7: Bicycle Compound Number 110 (TBMB scaffold) (peptide)
peptide: [Sar][Sar]ACPWGPFWCPVNR[Aib]GC
modifications: linker 4-11-18 via TBMB
notes: also called Compound 110
For the molecule B7, the Ki in assay [1] was found to be 75 nM; in assay [2] it was 140 nM.

B8: Bicycle Compound Number 84 (TBMB scaffold) (peptide)
peptide: [Sar][Sar]ACPWGP[4Pal]WCPVNRPGC
modifications: linker 4-11-18 via TBMB′
notes: also called Compound 84
Regarding B8, the Ki is 33.5 nM in assay [1] and 81.5 nM in assay [2].

B9: Bicycle Compound Number 126 (TBMB scaffold) (peptide)
peptide: [Sar][Sar]ACP[1Nal]G[Aib]FWCP[Tle]NRPGC
modifications: linker 4-11-18 via TBMB
notes: also called Sar2-ACP(1Nal)G(Aib)FWCP(tBuGly)NRPGC
Take B9: the Ki in assay [1] was determined as 15 nM; in assay [2], 19 nM.

B10: Bicycle Compound 235 (peptide)
peptide: [βAla][Sar][Sar][Sar][Sar][Sar][Sar][Sar][Sar][Sar][Sar]H[dD]VPC[Aib][1Nal]G[Aib]F[1Nal]CP[Tle]N[hArg]PGC
modifications: linker 16-23-30 via TBMB
The molecule B10 gave a Ki in assay [3] of 2.58 nM.

B11: Bicycle Compound Number 83 (TBMB scaffold) (peptide)
peptide: [Sar][Sar]ACPWGPAWCPVNRPGC
modifications: linker 4-11-18 via TBMB′
notes: also called Compound 83
As for B11, the Ki in assay [1] is 199 nM; in assay [2], 288 nM.

B12: Bicycle Compound Number 104 (TBMB scaffold) (peptide)
peptide: [Sar][Sar]ACPWGPFWCPVNRAGC
modifications: linker 4-11-18 via TBMB
Turning to B12, the Ki in assay [1] was 124 nM; in assay [2] it was 194 nM.

B13: Bicycle Compound Number 102 (TBMB scaffold) (peptide)
peptide: [Sar][Sar]ACPWGPFWCPV[dA]RPGC
modifications: linker 4-11-18 via TBMB
With B13, the Ki is 317 nM in assay [1] and 312 nM in assay [2].

B14: Bicycle Compound Number 111 (TBMB scaffold) (peptide)
peptide: [Sar][Sar]ACPWGPFWCPVNRPAC
modifications: linker 4-11-18 via TBMB
Consider B14, for which the Ki in assay [1] was found to be 108 nM; in assay [2], 238 nM.

B15: Bicycle Compound Number 57 (TBMB scaffold) (peptide)
peptide: ADVHCPWGPFWCPVNRPGCA
modifications: linker 5-12-19 via TBMB (inferred)
notes: also called Compound 57
Take B15: the Ki in assay [1] worked out at 0.48 nM; in assay [2] it was 1.2 nM.

B16: Bicycle Compound Number 120 (TBMB scaffold) (peptide)
peptide: [Sar][Sar]ACP[1Nal]GPF[1Nal]CPVNRPGC
modifications: linker 4-11-18 via TBMB
notes: also called Compound 120
For the molecule B16, the Ki in assay [1] came to 1.4 nM; in assay [2], 0.98 nM.

B17: Bicycle Compound Number 107 (TBMB scaffold) (peptide)
peptide: [Sar][Sar]ACPWGPFWCPVNR[Hyp]GC
modifications: linker 4-11-18 via TBMB
Regarding B17, the Ki in assay [1] is 48.7 nM; in assay [2], 85.8 nM.

B18: Bicycle Compound 183 (peptide)
peptide: Ac-[Sar][Sar]A[dD]VTCP[1Nal]G[Aib]F[1Nal]CP[Tle]NR[Aib]GC
modifications: linker 7-14-21 via TBMB
In the case of B18, the Ki in assay [3] was 1.02 nM.

B19: Bicycle Compound Number 122 (TBMB scaffold) (peptide)
peptide: [Sar][Sar]ACP[1Nal]GPFWCPVN[hArg]PGC
modifications: linker 4-11-18 via TBMB
notes: also called Compound 122
For B19, the Ki is 9.55 nM in assay [1] and 8 nM in assay [2].

B20: Bicycle Compound Number 134 (TBMB scaffold) (peptide)
peptide: [Sar][Sar]ACP[1Nal]GPFWCPVN[hArg]P[dA]C
modifications: linker 4-11-18 via TBMB
In the case of B20, the figures for the Ki in assay [1] and in assay [2] were 1.2 nM and 6.15 nM, respectively.

B21: Bicycle Compound Number 133 (TBMB scaffold) (peptide)
peptide: [Sar][Sar]ACP[1Nal]GPFWCPV[dA][hArg]PGC
modifications: linker 4-11-18 via TBMB
notes: also called Sar2-ACP(1Nal)GPFWCPV(D-Ala)(HArg)PGC
For B21, the figures for the Ki in assay [1] and in assay [2] were 14 nM and 3.7 nM, respectively.

B22: Bicycle Compound Number 123 (TBMB scaffold) (peptide)
peptide: [Sar][Sar]ACPWG[Aib]F[1Nal]CPVNRPGC
modifications: linker 4-11-18 via TBMB
On to B22, for which the Ki was 63 nM in assay [1] and 46 nM in assay [2].

B23: Bicycle Compound Number 55 (TBMB scaffold) (peptide)
peptide: AEGLPCPWGPFWCPVNRPGCA
modifications: linker 6-13-20 via TBMB (inferred)
notes: also called Compound 55
With B23, the Ki is 11.3 nM in assay [1] and 6.15 nM in assay [2].

B24: Bicycle Compound Number 96 (TBMB scaffold) (peptide)
peptide: [Sar][Sar]ACPWGPF[1Nal]CPVNRPGC
modifications: linker 4-11-18 via TBMB′
notes: also called Compound 96
Turning to B24, the Ki turned out to be 31.3 nM in assay [1] and 68.1 nM in assay [2].

B25: Bicycle Compound Number 117 (TBMB scaffold) (peptide)
peptide: [Sar][Sar]ACPWGPF[1Nal]CPV[dA]RPGC
modifications: linker 4-11-18 via TBMB
notes: also called Sar2-ACPWGPF(1Nal)CPV(D-Ala)RPGC
On to B25, for which the Ki came to 53 nM in assay [1] and 75 nM in assay [2].

B26: Bicycle Compound Number 121 (TBMB scaffold) (peptide)
peptide: [Sar][Sar]ACP[1Nal]GPFWCP[Tle]NRPGC
modifications: linker 4-11-18 via TBMB
notes: also called Sar2-ACP(1Nal)GPFWCP(tBuGly)NRPGC
For B26, the Ki in assay [1] worked out at 3.65 nM; in assay [2] it was 2 nM.

B27: Bicycle Compound Number 132 (TBMB scaffold) (peptide)
peptide: [Sar][Sar]ACP[1Nal]GPFWCP[Tle]NRP[dA]C
modifications: linker 4-11-18 via TBMB
notes: also called Sar2-ACP(1Nal)GPFWCP(tBuGly)NRP(D-Ala)C
As for B27, the Ki in assay [1] amounted to 7.7 nM; in assay [2] it was 8.7 nM.

B28: Bicycle Compound Number 129 (TBMB scaffold) (peptide)
peptide: [Sar][Sar]ACP[1Nal]GPFWCP[Tle][dA]RPGC
modifications: linker 4-11-18 via TBMB
notes: also called Sar2-ACP(1Nal)GPFWCP(tBuGly)(D-Ala)RPGC
B28: the Ki in assay [1] turned out to be 23 nM; in assay [2], 15 nM.

B29: Bicycle Compound Number 100 (TBMB scaffold) (peptide)
peptide: [Sar][Sar]ACPWGPFWCP[Tle]NRPGC
modifications: linker 4-11-18 via TBMB
notes: also called Compound 100
Consider B29, for which the Ki in assay [1] amounted to 58.3 nM; in assay [2], 112 nM.

B30: Bicycle Compound Number 113 (TBMB scaffold) (peptide)
peptide: [Sar][Sar]AC[Aib][1Nal]GPFWCPVNRPGC
modifications: linker 4-11-18 via TBMB
As to B30, the inhibition constant Ki is 10 nM in assay [1] and 6.6 nM in assay [2].

B31: Bicycle Compound Number 125 (TBMB scaffold) (peptide)
peptide: [Sar][Sar]AC[Aib][1Nal]GPFWCPVNRP[dA]C
modifications: linker 4-11-18 via TBMB
For the molecule B31, the values for the Ki in assay [1] and in assay [2] were 6.4 nM and 0.61 nM, respectively.

B32: Bicycle Compound Number 103 (TBMB scaffold) (peptide)
peptide: [Sar][Sar]ACPWGPFWCPVN[hArg]PGC
modifications: linker 4-11-18 via TBMB
For the molecule B32, the Ki came out at 126 nM in assay [1] and 169 nM in assay [2].

B33: Bicycle Compound 182 (peptide)
peptide: Ac-[Sar][Sar]A[dD]VTCP[1Nal]G[Aib]F[1Nal]CP[Tle]N[hArg]PGC
modifications: linker 7-14-21 via TBMB
For the molecule B33, the Ki in assay [3] stood at 1.16 nM.

B34: Bicycle Compound Number 115 (TBMB scaffold) (peptide)
peptide: [Sar][Sar]ACP[1Nal]GPFWCPV[dA]RPGC
modifications: linker 4-11-18 via TBMB
notes: also called Sar2-ACP(1Nal)GPFWCPV(D-Ala)RPGC
On to B34, for which the Ki stood at 12.5 nM in assay [1] and 1.64 nM in assay [2].

B35: Bicycle Compound Number 116 (TBMB scaffold) (peptide)
peptide: [Sar][Sar]ACP[1Nal]GPFWCPVNRP[dA]C
modifications: linker 4-11-18 via TBMB
With B35, the Ki worked out at 2.95 nM in assay [1] and 3.2 nM in assay [2].

B36: Bicycle Compound 238 (peptide)
peptide: [βAla][Sar][Sar][Sar][Sar][Sar][Sar][Sar][Sar][Sar][Sar]H[dD]VPC[Aib][1Nal]G[Aib]F[1Nal]CP[Tle]N[hArg][Aib][dD]C
modifications: linker 16-23-30 via TBMB
B36: the Ki in assay [3] came out at 2.83 nM.

B37: Bicycle Compound 232 (peptide)
peptide: Ac-[Sar][Sar]A[dH]DVPCP[1Nal]G[Aib]F[1Nal]CP[Tle]NR[Aib]GC
modifications: linker 8-15-22 via TBMB
As to B37, in assay [3], the Ki came out at 0.9 nM.
